Source: patent US20240425606A1, “ANTI-IL-11RA ANTIBODIES” (Lassen Therapeutics 1, Inc., priority 2021, published 2024)

Molecular target: T1, human IL-11Rα (human, UniProt Q14626 23-363, limits assumed)
T1 construct: Protein coated on ELISA plates and used in solution for BLI; also called hIL-11Rα; hIL-11R
T1 sequence: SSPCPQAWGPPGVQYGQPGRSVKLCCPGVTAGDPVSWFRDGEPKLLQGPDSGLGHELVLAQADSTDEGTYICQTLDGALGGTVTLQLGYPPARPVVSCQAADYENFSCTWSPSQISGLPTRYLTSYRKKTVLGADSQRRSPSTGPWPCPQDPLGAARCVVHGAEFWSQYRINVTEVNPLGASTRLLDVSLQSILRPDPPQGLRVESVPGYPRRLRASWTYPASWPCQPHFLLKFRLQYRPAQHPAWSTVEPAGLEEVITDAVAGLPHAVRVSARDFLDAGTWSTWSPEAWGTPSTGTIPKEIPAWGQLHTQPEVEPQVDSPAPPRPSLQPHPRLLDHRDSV
Assay: competitive ELISA, IL-11R coated on plate; competitor: biotinylated 8E2 (0.1 µg/mL); competing against 8E2-bio
Protocol: Relative binding activity of the antibodies was tested by competitive ELISA using biotinylated mAbs 8E2 or TS7. Antibodies 8E2 and TS7 were biotinylated using sulfo-NHS Biotin (Thermo Fisher) per the manufacturer's instructions. IL-11R was coated onto ELISA plates (Nunc, MaxiSorp) at 2 μg/mL in PBS, and plates were blocked with 2% BSA in PBS. After washing the plate with water, antibodies to be tested were titrated across the plate in a final volume of 90 μL followed by addition of 10 μL of biotinylated 8E2 or biotinylated TS7, as indicated in Table E1 (0.1 μg/mL final concentration) to each well. Plates were incubated for 2 hours on a plate-shaker, followed by washing and addition of 100 μL/well of streptavidin-HRP (Jackson ImmunoResearch, 1/1000 dilution). After a further 1 hour incubation, plates were washed, developed with Ultra-TMB HRP substrate (Thermo Fisher), and stopped by the addition of 50 μL/well of 2 M sulfuric acid. Plates were read at 450 nm on an iD5 plate reader (Molecular Devices).

- IC50: > 10 µg/mL
B1: mAb1 (antibody, V domains shown)
VH: EVQLLESGGGLVQPGGSLRLSCAASGFTFSWYSMTWVRQAPGKGLEWVSSIVPSGGHTQYADSVKGRFTISRDNSKNTLYLQMNSLRAEDTAVYYCAKGPDWGSFDLWGRGTLVTVSS
VL: DIQMTQSPSSLSASVGDRVTITCQASQDINNYLNWYQQKPGKAPKLLIYDASNLQTGVPSRFSGSGSGTDFTFTISSLQPEDIATYYCQQHESQSPTFGPGTKVDIK
notes: Expressed as human IgG4 (S228P EU)
